{"source": "paper PMC7710018", "about": "“Restoration of motor learning in a mouse model of Rett syndrome following long-term treatment with a novel small-molecule activator of TrkB” (Disease Models & Mechanisms, 2020)", "molecules": {"B1": {"name": "BDNF: Recombinant brain-derived neurotrophic factor, cognate ligand of TrkB; positive control (protein, UniProt P23560 19-247, looked up)", "Neurotrophic factor BDNF …": "APMKEANIRGQGGLAYPGVRTHGTLESVNGPKAGSRGLTSLADTFEHVIEELLDEDQKVRPNEENNKDADLYTSRVMLSSQVPLEPPLLFLLEEYKNYLDAANMSMRVRRHSDPARRGELSVCDSISEWVTAADKKTAVDMSGGTVTVLEKVPVSKGQLKQYFYETKCNPMGYTKEGCRGIDKRHWNSQCRTTQSYVRALTMDSKKRIGWRFIRIDTSCVCTLTIKRGR"}, "B2": {"name": "NT-3: neurotrophin, cognate ligand and positive control for 3T3-TrkC cells (protein, UniProt P20783 139-257, looked up)", "Neurotrophin-3": "YAEHKSHRGEYSVCDSESLWVTDKSSAIDIRGHQVTVLGEIKTGNSPVKQYFYETRCKEARPVKNGCRGIDDKHWNSQCKTSQTYVRALTSENNKLVGWRWIRIDTSCVCALSRKIGRT"}}, "key": {"[1]": {"test_system": "3T3-TrkA cells", "experiment": "NIH-3T3 cell survival (ViaLight)", "assay_type": "cell-based, mouse", "details": "serum-free medium, 72-96 h, PTX-BD4-3 1000 nM", "protocol": "(§1) Fig. 2. PTX-BD4-3 promotes cell survival preferentially through TrkB. (A-D) Neurotrophin receptor-expressing NIH-3T3 cells were incubated in culture medium (CM) alone or in medium plus either the indicated neurotrophins (BDNF, NGF, NT-3) or PTX-BD4-3 or its parent compound LM22A-4 for 72-96 h, after which survival was measured using the ViaLight assay. […] Scale bar: 10 μm. (B) Survival dose-response curves for PTX-BD4-3 and LM22A-4 in 3T3-TrkB cells. ^§P≤0.001 compared to CM alone. (C) Representative images of 3T3-TrkA, 3T3-TrkC and 3T3-p75 cells grown in the presence of CM alone, CM+neurotrophin or CM+PTX-BD4-3. Scale bar: 10 μm. NGF, NT-3 and BDNF served as positive controls for 3T3-TrkA, 3T3-TrkC and 3T3-p75 cells, respectively. (D) PTX-BD4-3 (1000 nM) had no effect on survival of 3T3-TrkA, 3T3-TrkC or 3T3-p75 cells compared to medium alone. *P≤0.05, ***P≤0.001 compared to CM alone. For each determination in B and D, n=10-32 wells derived from four to five independent experiments. Statistical significance was determined by one-way ANOVA with Dunnett's post hoc multiple comparison test. (E,F) […] protein was extracted from human cementoblast-like cell (HCEM) cultures treated with either culture medium alone, BDNF, LM22A-4 or PTX-BD4-3, immunoprecipitated with anti-TrkB antibody and then probed sequentially on western blots with anti-Shc and anti-TrkB antibody. The ratio of Shc to TrkB in treated cultures was normalized and compared to control (CM alone) using Kruskal-Wallis ANOVA followed by Dunn's multiple comparisons test (*P≤0.05, ^§P≤0.001). n=13 independent experiments, and each protein sample was run on duplicate western blots and the normalized values averaged. RLUs, relative light units.\n(§2) Mouse NIH-3T3 cells expressing TrkA (NIH-3T3-TrkA) were provided by Dr William Mobley (University of California at San Diego, San Diego, CA, USA), and NIH-3T3 cells expressing TrkB (NIH-3T3-TrkB) or TrkC (NIH-3T3-TrkC) were provided by Dr David Kaplan (University of Toronto, Toronto, ON, Canada). Cells were propagated in Dulbecco's modified Eagle medium (DMEM) supplemented with 10% fetal bovine serum (FBS; Invitrogen) and 200-400 µg/ml Geneticin. Cells were seeded into 24-well plates (30,000 cells/well) and cultured in medium consisting of 50% PBS and 50% DMEM without supplements. Following exposure to BDNF (20 ng/ml, 0.7 nM) or 10-1000 nM LM22A-4 or PTX-BD4-3 for 72-96 h, cells were suspended in 50 µl lysis buffer, transferred to white, opaque 96-well culture plates and survival was measured using the ViaLight Assay (Lonza Group, Rockland, ME, USA)."}, "[2]": {"test_system": "3T3 parent line, which does not express Trk receptors", "experiment": "NIH-3T3 cell survival", "assay_type": "cell-based, mouse", "details": "serum-free medium"}, "[3]": {"test_system": "3T3-TrkB cells", "experiment": "NIH-3T3 cell survival (ViaLight)", "assay_type": "cell-based, mouse", "details": "serum-free medium, 72-96 h, ViaLight; compounds 10-1000 nM dose-response, BDNF 20 ng/ml", "protocol": "as §1, §2"}, "[4]": {"test_system": "3T3-p75 cells", "experiment": "NIH-3T3 cell survival (ViaLight)", "assay_type": "cell-based, mouse", "details": "serum-free medium, 72-96 h, PTX-BD4-3 1000 nM", "protocol": "as §1, §2"}, "[5]": {"test_system": "TrkB", "experiment": "Shc adaptor protein recruitment to TrkB in HCEMs (IP/western blot)", "assay_type": "cell-based, human", "details": "1 h, compounds 1000 nM, BDNF 0.7 nM", "from_the_text": "Fig. 2. […] Scale bar: 10 μm. […] Scale bar: 10 μm."}, "[6]": {"test_system": "E16 mouse hippocampal neurons", "experiment": "Hippocampal neuron survival (ViaLight assay and Tuj1-positive cell counts)", "assay_type": "cell-based", "details": "compounds 1000 nM, BDNF 20 ng/ml; vs control antibody", "from_the_text": "To further confirm that PTX-BD4-3 promotes biologically relevant activity through TrkB, we examined the effect of PTX-BD4-3 on survival of cultured hippocampal neurons, using two different methods (Fig. 3A-C). […] It would be expected that although there is a correlation between survival status and mitochondrial metabolic status, one could have some degree of variability in metabolic function for a given level of cell survival. […] Because the plateau effect of PTX-BD4-3 on survival was observed between 500 nM and 1000 nM, we chose 1000 nM as a standard concentration for subsequent mechanistic studies.\nFig. 3. […] (A) Fluorescence photomicrographs (original magnification, ×40) of Tuj1-immunostained E16 mouse hippocampal neuronal cultures treated with culture medium (CM) alone, BDNF, LM22A-4 or PTX-BD4-3 for 48 h. Scale bar: 10 μm. (B) Neuron survival dose-response curves for LM22A-4 and PTX-BD4-3 were generated using the ViaLight assay; data were normalized to survival achieved with 20 ng/ml (∼0.7 nM) BDNF and compared with wells receiving culture medium medium (CM) alone. n=10-32 wells per group derived from four to five independent experiments. (C) Survival analysis of hippocampal neurons treated with either 20 ng/ml BDNF, 500 nM or 1000 nM LM22A-4 or 500 nM or 1000 nM PTX-BD4-3 for 48 h. Tuj1-positive cells counts were normalized to the survival achieved with BDNF and compared with wells treated with […]. n=32-40 wells per group derived from six independent experiments. Statistical significance in B and C was determined by one-way ANOVA with Dunnett's post hoc multiple comparison tests. *P≤0.05, ^§P≤0.001 compared to control (CM). (D) Survival of hippocampal neurons treated with CM, 20ng/ml BDNF (B), 1000 nM LM22A-4 or 1000 nM PTX-BD4-3 with or without anti-TrkB antibody (Bab) or non-immune serum (non). n=37-42 wells per group derived from five independent experiments. *P≤0.05, **P≤0.01, ***P≤0.001 (non vs Bab), Mann-Whitney test; *P≤0.05, ^ψP≤0.01, ^§P≤0.001 (compared to CM), one-way ANOVA with Dunnett's post hoc multiple comparison test.\nHippocampal neuron cultures were prepared from E16 CF1 mouse fetuses as described previously ([Yang et al., 2006]). Under the low-density conditions used here, neuronal survival is dependent, in part, on addition of exogenous neurotrophins ([Yang et al., 2008]; [Walter et al., 2011]). LM22A-4 and PTX-BD4-3 were dissolved in water at a stock concentration of 10 mM prior to dilution (1:10,000) in culture medium. Cell survival following a 48-h exposure to BDNF, LM22A-4 or PTX-BD4-3 was quantified by either counting β-tubulin III-positive cell bodies ([Massa et al., 2006]; [Walter et al., 2011]) or by the ViaLight Assay described above."}, "[7]": {"test_system": "3T3-TrkC cells", "experiment": "NIH-3T3 cell survival (ViaLight)", "assay_type": "cell-based, mouse", "details": "serum-free medium, 72-96 h, PTX-BD4-3 1000 nM", "protocol": "as §1, §2"}}, "data": [{"molecule": "NGF: neurotrophin, cognate ligand and positive control for 3T3-TrkA cells", "values": [{"measurement": "survival of 3T3-TrkA cells", "setting": "[1]", "result": "supported survival"}]}, {"molecule": "B1", "values": [{"measurement": "survival of the 3T3 parent line", "setting": "[2]", "result": "did not support survival"}, {"measurement": "survival of 3T3-TrkB cells", "setting": "[3]", "result": "supported survival"}, {"measurement": "survival of 3T3-p75 cells", "setting": "[4]", "result": "respond"}, {"measurement": "Shc recruitment to TrkB (ratio of Shc to TrkB)", "setting": "[5]", "result": "promoted Shc recruitment to TrkB"}, {"measurement": "neurotrophic activity in the presence of function-blocking anti-TrkB^ECD antibody", "setting": "[6]", "result": "reduction"}]}, {"molecule": "B2", "values": [{"measurement": "survival of 3T3-TrkC cells", "setting": "[7]", "result": "supported survival"}]}]}
